Source: publication PMC10385607 (2023)

Tests used:
[1] = target: T1, Human ALCAM (28–501)-6xhistidine tag (human, UniProt Q13740 28-501); assay: ELISA; competition with CD6-Fc
T1 chain: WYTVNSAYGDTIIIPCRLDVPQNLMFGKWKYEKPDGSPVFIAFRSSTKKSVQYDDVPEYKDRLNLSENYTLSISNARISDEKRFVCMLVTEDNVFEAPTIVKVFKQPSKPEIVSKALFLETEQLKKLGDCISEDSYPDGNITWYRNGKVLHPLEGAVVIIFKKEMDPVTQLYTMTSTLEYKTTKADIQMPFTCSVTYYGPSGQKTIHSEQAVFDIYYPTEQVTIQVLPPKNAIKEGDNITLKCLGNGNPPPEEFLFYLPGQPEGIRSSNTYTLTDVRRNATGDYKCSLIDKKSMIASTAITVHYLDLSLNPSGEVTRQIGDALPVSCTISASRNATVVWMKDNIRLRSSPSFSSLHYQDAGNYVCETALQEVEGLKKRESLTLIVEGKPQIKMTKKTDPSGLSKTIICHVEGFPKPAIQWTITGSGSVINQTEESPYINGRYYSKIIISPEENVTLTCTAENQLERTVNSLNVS

[2] = target: T1, Human ALCAM (28–501)-6xhistidine tag; assay: SPR
[3] = target: T1, Human ALCAM (28–501)-6xhistidine tag; assay: SPR

B1: scFv V200G1 (scFv, V domains shown)
VH: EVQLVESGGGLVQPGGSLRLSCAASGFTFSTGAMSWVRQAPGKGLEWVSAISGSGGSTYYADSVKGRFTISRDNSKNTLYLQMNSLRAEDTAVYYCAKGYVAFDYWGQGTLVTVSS
VL: SSVLTQPPSVSVAPGQTARITCQGDSLRSGYASWYQQKPGQAPVLVVYGKTGRPSGIPERFSGSSSGNTATLTISRVEAGDEADYYCNSSPPFSAEVVFGGGTKLTVL
IC50 [1]: 31.3 nM | Kd [2]: 2.52 nM

B2: scFv OPT (scFv, V domains shown)
VH: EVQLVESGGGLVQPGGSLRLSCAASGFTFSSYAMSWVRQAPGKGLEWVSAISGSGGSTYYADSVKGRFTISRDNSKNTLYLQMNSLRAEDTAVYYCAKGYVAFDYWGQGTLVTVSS
VL: SSVLTQPPSVSVAPGQTARITCQGDSLRSYYASWYQQKPGQAPVLVVYGKNNRPSGIPERFSGSSSGNTATLTISRVEAGDEADYYCNSSPPFSAEVVFGGGTKLTVL
IC50 [1]: 69.2 nM | Kd [2]: 12.7 nM | koff [3]: 0.0011 s⁻¹

B3: scFv V20C10NC (scFv, V domains shown)
VH: EVQLVESGGGLVQPGGSLRLSCAASGFTFSTGAMSWVRQAPGKGLEWVSAISGTGGTTYYADSVKGRFTISRDNSKNTLYLQMNSLRAEDTAVYYCAKGYVAFDYWGQGTLVTVSS
VL: SSVLTQPPSVSVAPGQTARITCQGDSLRSGYASWYQQKPGQAPVLVVYPKMSRPSGIPERFSGSSSGNTATLTISRVEAGDEADYYCNSSPPFSAEVVFGGGTKLTVL
IC50 [1]: 29.2 nM | Kd [2]: 5.08 nM | koff [3]: 9.12e-05 s⁻¹

B4: scFv V2D7 (scFv, V domains shown)
VH: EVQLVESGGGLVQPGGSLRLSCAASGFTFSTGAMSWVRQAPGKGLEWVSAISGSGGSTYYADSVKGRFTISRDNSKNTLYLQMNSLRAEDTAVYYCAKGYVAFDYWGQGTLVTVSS
VL: SSVLTQPPSVSVAPGQTARITCQGDSLRSGYASWYQQKPGQAPVLVVYGKNNRPSGIPERFSGSSSGNTATLTISRVEAGDEADYYCNSSPPFSAEVVFGGGTKLTVL
Kd [2]: 2.62 nM | koff [3]: 0.000127 s⁻¹

B5: scFv IF8 (scFv, V domains shown)
VH: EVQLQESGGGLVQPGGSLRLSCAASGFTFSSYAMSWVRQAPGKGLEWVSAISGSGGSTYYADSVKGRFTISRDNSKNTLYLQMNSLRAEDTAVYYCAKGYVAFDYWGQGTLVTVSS
VL: SSELTQDPAVSVALGQTVRITCQGDSLRSYYASWYQQKPGQAPVLVIYGKNNRPSGIPDRFSGSSSGNTASLTITGAQAEDEADYYCNSSPPFSAEVVFGGGTKLTVL
koff [3]: 0.00114 s⁻¹
